Test results reported in article PMC2852419, “Identification of SOX9 Interaction Sites in the Genome of Chondrocytes”.

B1: Col2a1 intron 6 mutant (dsDNA)
DNA 1: GGCAGATAGCTGTTTTCCTTTTCGACAGAAACCCAG
DNA 2: CTGGGTTTCTGTCGAAAAGGAAAACAGCTATCTGCC
B2: Col2a1 intron 6 (human) (dsDNA)
DNA 1: GGCAGGTAACTGAGGACTTTCTTTATAGAATCCCAG
DNA 2: CTGGGATTCTATAAAGAAAGTCCTCAGTTACCTGCC

Target: SOX9 (Homo sapiens, UniProt P48436 1-509)
Experiment: EMSA; EMSA with recombinant human SOX9 and 32P probes as in cited ref 67; buffer, salt, pH and temperature not given
Conditions: protein: recombinant; chain copies: 2; label: 32P-dCTP Klenow fill-in

Chain of SOX9 (P48436 whole entry): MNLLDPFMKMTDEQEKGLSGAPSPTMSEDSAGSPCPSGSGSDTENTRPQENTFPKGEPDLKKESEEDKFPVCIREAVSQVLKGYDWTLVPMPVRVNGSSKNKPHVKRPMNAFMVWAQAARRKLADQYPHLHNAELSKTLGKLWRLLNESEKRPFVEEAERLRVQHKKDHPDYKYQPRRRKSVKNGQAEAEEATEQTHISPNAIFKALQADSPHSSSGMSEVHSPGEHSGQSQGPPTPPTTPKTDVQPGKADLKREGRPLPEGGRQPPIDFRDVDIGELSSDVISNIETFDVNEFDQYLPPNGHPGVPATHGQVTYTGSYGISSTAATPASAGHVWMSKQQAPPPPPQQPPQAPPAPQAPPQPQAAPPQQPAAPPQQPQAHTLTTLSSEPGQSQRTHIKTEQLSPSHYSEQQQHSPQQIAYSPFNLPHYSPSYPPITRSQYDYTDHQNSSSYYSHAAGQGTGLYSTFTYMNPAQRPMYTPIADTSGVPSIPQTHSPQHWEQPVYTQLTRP

| Binder | binding result |
| --- | --- |
| B1 | no binding |
| B2 | binds |
